According to paper PMC10613289, “A circular RNA activated by TGFβ promotes tumor metastasis through enhancing IGF2BP3-mediated PDPN mRNA stability”:

Key:
[1] = target: T1, IGF2BP3 (recombinant GST fusion) (UniProt O00425 1-579); experiment: pull-down; EMSA: 10 mM HEPES pH 7.3, 20 mM KCl, 1 mM MgCl2, 1 mM DTT; competition: 150 mM NaCl, 20 mM Tris-HCl pH 7.5, 1.5 mM MgCl2, 1 mM DTT, 10% glycerol, 4 °C; pull-down at 4 °C, wash 20 mM Tris-HCl pH 7.5, 1 mM EDTA, 450 mM NaCl; settings: protein: recombinant; tags: GST (pGEX-6P-1); label: 3' biotin
[2] = target: T1, IGF2BP3 (recombinant GST fusion); experiment: competition; displaces biotin-circITGB6 (1 uM), protein 1 uM; EMSA: 10 mM HEPES pH 7.3, 20 mM KCl, 1 mM MgCl2, 1 mM DTT; competition: 150 mM NaCl, 20 mM Tris-HCl pH 7.5, 1.5 mM MgCl2, 1 mM DTT, 10% glycerol, 4 °C; pull-down at 4 °C, wash 20 mM Tris-HCl pH 7.5, 1 mM EDTA, 450 mM NaCl; settings: tags: GST (pGEX-6P-1)
[3] = target: T1, IGF2BP3 (recombinant GST fusion); experiment: competition; against biotin-circITGB6 (1 uM), protein 1 uM; EMSA: 10 mM HEPES pH 7.3, 20 mM KCl, 1 mM MgCl2, 1 mM DTT; competition: 150 mM NaCl, 20 mM Tris-HCl pH 7.5, 1.5 mM MgCl2, 1 mM DTT, 10% glycerol, 4 °C; pull-down at 4 °C, wash 20 mM Tris-HCl pH 7.5, 1 mM EDTA, 450 mM NaCl; settings: tags: GST (pGEX-6P-1)

T1 sequence (O00425 whole entry, the tested form may be a part): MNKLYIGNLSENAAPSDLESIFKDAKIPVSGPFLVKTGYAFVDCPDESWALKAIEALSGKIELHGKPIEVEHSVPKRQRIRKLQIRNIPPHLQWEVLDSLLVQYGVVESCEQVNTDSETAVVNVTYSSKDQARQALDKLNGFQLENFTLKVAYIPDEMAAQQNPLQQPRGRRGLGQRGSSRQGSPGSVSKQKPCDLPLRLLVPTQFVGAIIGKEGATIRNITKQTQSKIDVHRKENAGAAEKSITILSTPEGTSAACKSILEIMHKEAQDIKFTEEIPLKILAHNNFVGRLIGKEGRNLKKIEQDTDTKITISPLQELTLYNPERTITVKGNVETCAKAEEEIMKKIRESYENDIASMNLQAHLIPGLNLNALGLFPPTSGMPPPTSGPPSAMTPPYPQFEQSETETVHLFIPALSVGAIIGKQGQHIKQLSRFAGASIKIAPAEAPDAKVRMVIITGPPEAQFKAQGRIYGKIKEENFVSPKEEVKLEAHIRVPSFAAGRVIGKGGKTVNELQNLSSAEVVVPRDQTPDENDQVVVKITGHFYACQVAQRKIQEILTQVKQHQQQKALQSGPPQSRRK

Binder: ACUCUAAACGGAGCUGCAUUGAGUGCCACC (ssRNA) [M1 (M1-WT) probe]
- binding result [1]: binds

Binder: ACUCUAAACGGAGCUGCAUUGAGUGCCACC (ssRNA) [M1 competitor, unlabeled]
- binding result [2]: binds

Binder: ACUAGCUGGUGCGACCAUCAGUGAAGAAGA (ssRNA) [M2 competitor, unlabeled]
- binding result [3]: no binding
